The supplement of paper PMC9170038

Tested on: MS2 coat protein
Experiment: apparent KD of MS2 coat protein; designed switch direction (-1 OFF switch, 1 ON switch): -1; higher = weaker reporter binding
Outline: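 Stalled E. coli RNA polymerase transcribed designed RNA switches on Illumina chips, which were then titrated with SNAP-549-labelled MS2 coat protein, doubling from 0.7 or 1.5 nM to 3 µM. Steps lasted from 0.8–1.5 h at the lowest concentration to 10–20 min at the highest. The apparent KD is each design's median over clusters of curve-fitted normalised fluorescence.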

[1] = input ligand: microRNA oligo, concentration not stated
[2] = Eterna round: R95, input ligand: FMN 200 uM
[3] = Eterna round: R95, input ligand: microRNA oligo, concentration not stated
[4] = Eterna round: R95, input ligand: none

Sequence | apparent KD of MS2 coat protein (input ligand: FMN 200 uM) | apparent KD of MS2 coat protein (input ligand: none) | apparent KD of MS2 coat protein [1] | apparent KD of MS2 coat protein [2] | apparent KD of MS2 coat protein [3] | apparent KD of MS2 coat protein [4]
GAUCCUUCUGUUAGGAUAUGCUUCGGGCUUCCGCUGCAGAAGGAACAUGAGGAUCACCCAUGUCAAAUAAAAUC [JL-BMX4-4.38 ViennaUCT mod] (Eterna round: R97, puzzle: Brourd's mod of Exclusion 4) | 48.5 nM | 17.8 nM | – | – | – | –
AGCUGUGGCCGAGGAUAUACACAUGAGGAUCACCCAUGUAGGUGCGGAUACUCGCACCAAUAAGUGUAGAAGGCGGUCUCAGCA [Eli eng2 - 057] (Eterna round: R96, puzzle: Exclusion NG 2) | 14.6 nM | 19.2 nM | 13.2 nM | – | – | –
UUUAAUUUUUUUUUUUUACAAGCUUUUUGCUCGUCUUAUACAUGAGGAUCACCCAUGUAAGUGAGGGAUAAAUUAUC [JMF 40] (puzzle: Sensor v3, turn-off variant 2) | – | – | – | 15.6 nM | 22.8 nM | 15.6 nM
CAGUACUGAGGAUAUACAUGAGGAUCACCCAUGUUCCAAGGCUAGGAUACUAGCAAAGGUAGAAGGCAGUACUG [Mat - Exclusion 3 - Eli Mod - D26] (Eterna round: R97, puzzle: Exclusion 3) | 150 nM | 17.6 nM | – | – | – | –
GGAUCCUGGGUCAGGAUAUGCUGACAGCUUUGUCAGCAGAAGGGACAUGAGGAUCACCCAUGUGCUCGGUUUUG [Magic-20] (puzzle: Brourd's mod of Exclusion 4) | – | – | – | – | 9.68 nM | –
CCGGAAAGGAAGGAUAUGCUUGACGAAAGUCAAGCAGAAGGUCCUACAUGAGGAUCACCCAUGUGGCCUCCCGG [Mat - Exclusion 6 - Eli Mod - D48] (Eterna round: R97, puzzle: Exclusion 6) | 737 nM | 128 nM | – | – | – | –
AGUACUAACACGGAAGUGUUAGUACAAUAAGCUUGUGUUACAUGAGGAUCACCCAUGUCCUCAUAAGCUCGUCUUAA [Mat - Sensor v3 - Turn-off var 2 - D62] (puzzle: Sensor v3, turn-off variant 2) | – | – | – | 48.4 nM | 487 nM | 40.2 nM
AAUAACAGAGGAUAUACUGUUUUAUGUGUUUGUUAUUUUGAACAUGAGGAUCACCCAUGUAGAAGGCUGAAUGA [JMF 64] (puzzle: Exclusion 2) | – | – | – | – | 27.1 nM | –
AGUAUGCGGCAGGAUAUCCAUCCGCGGUAAGGUGGAGAAGGGCUGACAUGAGGAUCACCCAUGUGCGUCCUGUA [salish99_ex6_r4_028] (Eterna round: R97, puzzle: Exclusion 6) | 31.9 nM | 19.9 nM | – | – | – | –
ACAUUGUGAGGAUAUCCGAAGAAGGUCCGGAAGGUUCGGGUGGAGAAGGCACAUGAGGAUCACCCAUGUGUGGG [Excls4-VIII] (puzzle: Exclusion 4) | – | – | – | – | 39.3 nM | –
UUAUUGUUAGAGGAUAUAUUAAGGUAUGCUUUGAUAGAAGGCUAUACAUGAGGAUCACCCAUGUUUUUUGGGAU [JR_Ex6_Sub076] (Eterna round: R97, puzzle: Exclusion 6) | 654 nM | 328 nM | – | – | – | –
CUCGUGUAAGGAUAUAUGAGUCACGGAAAUAAACCGUGAAGAUAGAAGGUACAUGAGGAUCACCCAUGUAAAAC [Mod of Anonveat 4 - Jieux - Exclusion 4] (Eterna round: R97, puzzle: Exclusion 4) | 124 nM | 99.4 nM | – | – | – | –
GACUGCCGAGGAUAUACAUGAGGAUCACCCAUGUGCUUCAGCAUUUUUUGAUGCAUGGGUAGAAGGCGGUAGUU [LRO-Excl3-15] (puzzle: Exclusion 3) | – | – | – | – | 341 nM | –
ACAUGAGGAUCACCCAUGUCAGGCUGGUCCGCUCCGGCUGUUGAGGAUAUAGCACGGUGUCCGCGCUAGAAGGUGAGGGCCGGC [Aenatbe mod 31] (Eterna round: R96, puzzle: Exclusion NG 3) | 24.8 nM | 26.4 nM | 15.7 nM | – | – | –
GAAAACGCAGAGGAUAUUUCAGAUCAAAGCUGCAAAGAAGGCUGCACAUGAGGAUCACCCAUGUGGUCUUCAAA [jl-ex6-4.02 ViennaUCT mod] (Eterna round: R97, puzzle: Exclusion 6) | 386 nM | 20.7 nM | – | – | – | –
AGAUCUAGGACAGGAUAUAUGGAUGUCUUCAUCGAAGAUGAAGACAUCACAUGAGGAUCACCCAUGUAGAAGGGUCCUAGAUCA [Omei Exc(NG) 2Av2] (Eterna round: R96, puzzle: Exclusion NG 2) | 11.9 nM | 15.6 nM | 13.5 nM | – | – | –

Sequence | apparent KD of MS2 coat protein (input ligand: FMN 200 uM) | apparent KD of MS2 coat protein (input ligand: none) | apparent KD of MS2 coat protein [1] | apparent KD of MS2 coat protein [2] | apparent KD of MS2 coat protein [3] | apparent KD of MS2 coat protein [4]
GGGAUGUCAGGAUAUCCAAAAGUCCGCCAGUACGGCAGACAGGAGAAGGGACAUGAGGAUCACCCAUGUAAAGA [Leinrete] (puzzle: Exclusion 4) | – | – | – | 89 nM | 32.6 nM | 38.3 nM
UAACAAGCUUAAAGAUCCUACAUGAGGAUCACCCAUGUGCUCGUCUUAUAACGUACUGUGACGAAAGUCACGGUACG [JL TOV1 3.14] (Eterna round: R97, puzzle: Sensor, turn-off variant 1) | 348 nM | 395 nM | – | – | – | –
AGCGAGGCAGGAUAUACAUGAGGAUCACCCAUGUACUUGUAUGGCGUGGAACAUCGUGGUAGAAGGGCCGUGCC [EX3 #80] (Eterna round: R97, puzzle: Exclusion 3) | 92.7 nM | 68.9 nM | – | – | – | –
UAGUAUAUCUAUGGGAGUAACAUGAGGAUCACCCAUGUAUGUCUUGUUUUUUGUUCGUCAUAGGCCGGUUGAACGGU [JR_SV3TOV1_Sub027] (puzzle: Sensor v3, turn-off variant 1) | – | – | – | 23.3 nM | 27.7 nM | 26.5 nM
UGAGUGCUGCGAGGAUAUACAUGAGGAUCACCCAUGUAAUCGUGUGAGCCAAAGGCUCACACGAAGUAGAAGGCGCAGUACUCU [Mat - Exclusion NG 2 - Mod of JL - D25] (Eterna round: R96, puzzle: Exclusion NG 2) | 12.5 nM | 15.2 nM | 11.1 nM | – | – | –
CUAACAUGCUGGUGAUCAUACAUGAGGAUCACCCAUGUAACAAGCUUUUUGCUCGUCUUAAUUUAAUUGAUUACUAG [Stov1/8-A3] (Eterna round: R97, puzzle: Sensor, turn-off variant 1) | 88.9 nM | 113 nM | – | – | – | –
UCGUUCCGUGUAGGAUAUUGGCCUUCCCUGGGCCGAGAAGGACAUGAGGAUCACCCAUGUAUGUUAUUAUCGCGCGUGGCGCAU [Design 86] (Eterna round: R96, puzzle: Exclusion NG 1) | 73.9 nM | 18.4 nM | 14.5 nM | – | – | –
CUGCUCCGUGUAGGAUAUGCGUACAACCAAUAUGCAGAAGGACAUGAGGAUCACCCAUGUAUGUUAUUAUCACGUGAAGCGUCC [Design 21] (Eterna round: R96, puzzle: Exclusion NG 1) | – | – | 16 nM | – | – | –
UAACAUGUCUGAGGAUAUCUGCACGUUUAGUGCAGAGAAGGCAGAACAUGAGGAUCACCCAUGUAGAUCAUUAAUUAAUUAAUU [ENG1/7-B2] (Eterna round: R96, puzzle: Exclusion NG 1) | 195 nM | 194 nM | 142 nM | – | – | –
GACCUACAUGAGGAUCACCCAUGUCAGGAUAUGUGGCGGAGUACGAACAGUCCAAGCGACAGAAGGGACAACAG [Eternabot (Original) Solution 24] (Eterna round: R97, puzzle: Exclusion 1) | 27.8 nM | 25.3 nM | – | – | – | –
CCAAUGUAAGGAUAUGACAAUGGUAUCUUCGGAUACCAUUGUCAGAAGGUACAUGAGGAUCACCCAUGUACAAA [Ex4-3: 9] (puzzle: Exclusion 4) | – | – | – | – | 13.4 nM | –
AAGUCGGCAGGAUAUACAUGAGGAUCACCCAUGUAAAUUUUUCGUUUAACUUGAAUGUGUAGAAGGGCCAUGAA [Ex3 #67] (Eterna round: R97, puzzle: Exclusion 3) | 25.8 nM | 27.2 nM | – | – | – | –
UUUUAACAUGAGGAUCACCCAUGUGAGGAUAUCGAAAUUUAUAUUAAUAUUUAUAUUACGAGAAGGCACAUUUU [JMF 58] (Eterna round: R96, puzzle: Exclusion 1) | 103 nM | 62.9 nM | 55.3 nM | – | – | –
UUACGGAUAGAGGAUAUAUUAAGGAAGGUUACGAUAGAAGGCUAGACAUGAGGAUCACCCAUGUAUAUUGGGAU [JR_Ex6_Sub072] (Eterna round: R97, puzzle: Exclusion 6) | 172 nM | 144 nM | – | – | – | –
CCUCUAUUUGUGAGGAUAUCGGUAAACUGGAUUGUCGAGAAGGCACAUGAGGAUCACCCAUGUAUUGAACAGCA [JR_BMEx4_Sub021] (Eterna round: R97, puzzle: Brourd's mod of Exclusion 4) | 203 nM | 31.2 nM | – | – | – | –
